In article PMC3468084 one finds Kd data, which are given here for 1 molecule.

For data set [1], the target named is T1, KpDnaB helicase (Klebsiella pneumoniae, UniProt A6TGW0 1-471). The data set is described as follows: EMSA; no flavonol; apparent Kd; 20 mM HEPES pH 7.0, 100 mM NaCl, 25 C, 30 min, 1.7 nM dT30, no Mg2+ or nucleotide stated; native 8% PAGE in TBE at 4 C.
Data set [2] has as its target T1, KpDnaB helicase. The data set is described as follows: EMSA; 16.7 uM galangin; apparent Kd; 20 mM HEPES pH 7.0, 100 mM NaCl, 25 C, 30 min, 1.7 nM dT30, no Mg2+ or nucleotide stated; native 8% PAGE in TBE at 4 C. For orientation: Mobility shift assays separate free from complexed probe on a gel.
Data set [3] concerns the target T1, KpDnaB helicase. The data set is described as follows: EMSA; 16.7 uM kaempferol; apparent Kd; 20 mM HEPES pH 7.0, 100 mM NaCl, 25 C, 30 min, 1.7 nM dT30, no Mg2+ or nucleotide stated; native 8% PAGE in TBE at 4 C.
The target in data set [4] is T1, KpDnaB helicase. The data set is described as follows: EMSA; 16.7 uM myricetin; apparent Kd; 20 mM HEPES pH 7.0, 100 mM NaCl, 25 C, 30 min, 1.7 nM dT30, no Mg2+ or nucleotide stated; native 8% PAGE in TBE at 4 C.
Data set [5] deals with T1, KpDnaB helicase. The data set is described as follows: EMSA; 16.7 uM quercetin; apparent Kd; 20 mM HEPES pH 7.0, 100 mM NaCl, 25 C, 30 min, 1.7 nM dT30, no Mg2+ or nucleotide stated; native 8% PAGE in TBE at 4 C.

Take TTTTTTTTTTTTTTTTTTTTTTTTTTTTTT (ssDNA) [dT30]: the Kd with KpDnaB helicase [1] amounted to 0.97 ± 0.07 µM; with KpDnaB helicase [2], 1.03 ± 0.06 µM; with KpDnaB helicase [3], 1.1 ± 0.05 µM; in the data set with KpDnaB helicase [4], 1.11 ± 0.05 µM; with KpDnaB helicase [5], 1.03 ± 0.07 µM.
